# Test system: T1, rBDD FVIII (recombinant B-domain deleted FVIII, REFACTO)
# T1 sequence: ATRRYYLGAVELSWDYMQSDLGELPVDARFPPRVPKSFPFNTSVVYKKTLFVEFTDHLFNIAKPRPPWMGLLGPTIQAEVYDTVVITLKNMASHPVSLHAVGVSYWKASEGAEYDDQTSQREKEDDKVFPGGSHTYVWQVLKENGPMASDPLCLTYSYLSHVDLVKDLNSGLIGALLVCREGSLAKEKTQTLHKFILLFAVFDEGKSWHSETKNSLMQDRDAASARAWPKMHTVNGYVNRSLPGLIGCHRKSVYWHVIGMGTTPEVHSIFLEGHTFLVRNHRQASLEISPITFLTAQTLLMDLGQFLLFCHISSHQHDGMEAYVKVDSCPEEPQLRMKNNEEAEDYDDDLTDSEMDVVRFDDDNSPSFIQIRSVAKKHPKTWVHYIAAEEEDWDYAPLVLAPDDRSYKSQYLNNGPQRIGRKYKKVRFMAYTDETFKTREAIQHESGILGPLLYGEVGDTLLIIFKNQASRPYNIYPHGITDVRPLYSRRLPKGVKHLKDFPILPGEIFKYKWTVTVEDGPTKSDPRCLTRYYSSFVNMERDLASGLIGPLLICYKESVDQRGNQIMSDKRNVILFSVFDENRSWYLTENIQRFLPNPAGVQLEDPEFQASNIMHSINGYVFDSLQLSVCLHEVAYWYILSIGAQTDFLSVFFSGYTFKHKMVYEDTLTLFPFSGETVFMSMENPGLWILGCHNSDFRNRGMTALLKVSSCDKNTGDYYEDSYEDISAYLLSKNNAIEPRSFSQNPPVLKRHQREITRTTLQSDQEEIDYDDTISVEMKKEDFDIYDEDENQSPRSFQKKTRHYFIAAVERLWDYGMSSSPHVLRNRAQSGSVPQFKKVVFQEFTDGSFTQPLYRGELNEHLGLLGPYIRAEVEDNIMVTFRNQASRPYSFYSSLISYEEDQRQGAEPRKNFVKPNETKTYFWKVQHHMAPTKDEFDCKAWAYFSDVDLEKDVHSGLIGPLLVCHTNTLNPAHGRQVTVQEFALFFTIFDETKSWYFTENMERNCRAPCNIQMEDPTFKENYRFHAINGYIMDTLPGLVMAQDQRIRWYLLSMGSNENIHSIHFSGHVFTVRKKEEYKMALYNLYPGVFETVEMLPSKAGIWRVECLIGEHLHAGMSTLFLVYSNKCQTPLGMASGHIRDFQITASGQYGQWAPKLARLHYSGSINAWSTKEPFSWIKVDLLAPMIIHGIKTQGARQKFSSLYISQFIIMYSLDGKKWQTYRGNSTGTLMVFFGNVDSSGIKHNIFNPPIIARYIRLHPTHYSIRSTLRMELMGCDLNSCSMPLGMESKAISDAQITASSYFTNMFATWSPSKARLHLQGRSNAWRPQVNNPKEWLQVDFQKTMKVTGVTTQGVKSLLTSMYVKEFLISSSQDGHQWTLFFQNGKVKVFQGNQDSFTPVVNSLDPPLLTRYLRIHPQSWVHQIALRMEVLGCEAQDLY
Substance,Km (activation of Factor X by the Xase complex),Vmax (activation of Factor X by the Xase complex),"Vmax (FXa generation, varying FIXa)"
Factor X (FX),0.051 µM,73.5 nM/min,–
activated Factor IX (FIXa),–,–,4 nM/min
